This test has as its target pGE-LysRS-6xhis-SPARC fusion protein (not stated | Clonorchis sinensis). In words: SEC; Ni-affinity fractions on a Superdex 200 Increase 10/300 GL or a Superose 6 Increase 10/300 column; 50 mM Tris-Cl (pH 7.5), 300 mM NaCl; 0.3 mL/min; molecular weight estimated from elution; samples from sonication and from mild lysis.

What is called stoichiometry N is a count of units in the complex or per binding partner. pGE-LysRS-6xhis-SPARC fusion protein: the stoichiometry N was 2.

(Values after paper PMC6413200.)
